B1: LINE1-mini (parent)
chain: GGCAGAGCUCAACACAGCGUGGCAAAGUGGCUGUGGCUAGACUGCC

Variants of: B1
Assay: self-cleavage, relative activity (ratio to wild type); higher = more cleavage; in vitro, sequencing; the parent is a self-cleaving ribozyme

Variant | self-cleavage
C15G A26U | 0.07
A26G G30C | 1.27
C13U A41G | 0.06
U20G C45A | 0.29
C37A U38C | 0.03
C3G U38A | 0.18
G21A U32G | 0.1
U34C | 0.13
A16U G44U | 0.03
G21A C42G | 0.06
G5U A11C | 0.03
A14U U20A | 0.42
G1U U32C | 0.08
A4U C23U | 0.41
G19U G40A | 0.08
G17C G27C | 0.29
G5U U20C | 0.05
G30C C31U | 1.32
A25U C45U | 2.13
C15A A16U | 0.06
C15G G27U | 0.04
U34C C46G | 0.1
C3U A4G | 0.31
U32C G44U | 0.07

Variant | self-cleavage
U38A G40C | 0.09
C37G C42G | 0.02
G1U C18A | 0.16
A14C U32C | 0.08
A14C U32G | 0.07
A16G A26G | 0.37
U9C C23U | 0.02
A41C U43A | 0.11
A4U G19C | 0.05
G7A U34A | 0.1
G36U G44U | 0.09
G27A G29U | 0.5
A39G U43C | 0.04
U32A G40A | 0.06
A14U G36U | 0.24
G7C C42A | 0.08
G21C C31A | 0.19
G33A G36A | 0.12
A14U U32A | 0.05
C8G C23G | 0.08
C8A A25C | 0.45
C23A G30U | 1.16
G1U G27U | 0.25
G7U U43G | 0.32

Variant | self-cleavage
U38G C42U | 0.03
A4U A11U | 0.04
A6C A26C | 0.48
U9G G29U | 0.07
G21C G22A | 0.48
U28G A39G | 0.07
G21U A24U | 1.01
A11G C45A | 0.03
U32C C42U | 0.22
G19U A41G | 0.2
G17A G44U | 0.03
G30C U32C | 0.09
G35U A41C | 0.08
U32G G44U | 0.05
G40U U43G | 0.47
U20G U38A | 0.2
G5C G40U | 0.1
C8A C23G | 0.22
G19A G40A | 0.11
G22C A39G | 0.09
A25G U28A | 1.01
A16C G19U | 0.08
A25G G40C | 0.06
U9G A24U | 0.18

Variant | self-cleavage
U32A C46G | 0.28
C18U G35A | 0.1
A6C G22C | 0.65
U32G C42U | 0.11
U20A G30U | 0.93
U20A G30C | 0.68
U20A G30A | 0.62
G2C G5A | 0.05
C3U A25U | 0.52
G1U U28A | 0.15
G27A G44A | 0.34
C3A A39U | 0.48
C8U G19C | 0.17
C31U U34C | 0.12
C13A G36U | 0.12
C3G G17C | 0.15
G17C G33C | 0.03
G17C G33A | 0.06
G7A A26U | 0.21
G19C U34G | 0.14
U20C A26C | 0.36
C13A A14C | 0.08
A24U C37G | 0.05
G33C C42A | 0.06

Variant | self-cleavage
A12U U28A | 0.2
U9C U20C | 0.02
C23A U43C | 0.08
G21C A25U | 1.14
G35C U43A | 0.11
A12C A16C | 0.03
C10A C18U | 0.07
A6C A14U | 0.22
G5U C23A | 0.11
G17A G29U | 0.07
A12G G35C | 0.05
G1A C18G | 0.38
G19A U38A | 0.82
C8A U34G | 0.34
U9C A26G | 0.05
G2U C37A | 0.03
G7A A39G | 0.07
A16C A24G | 0.04
A26U A41U | 0.75
U20G C31A | 0.07
A25C | 0.66
A25U G36A | 0.12
A6C C45A | 0.47
A26G G40U | 0.15

Variant | self-cleavage
G17U C42U | 0.06
G21C U32G | 0.23
G22U G44U | 0.27
A12U | 0.28
U28A G29U | 0.41
A26U G35U | 0.16
G36C U43G | 0
U9A C13U | 0.29
G33C G44A | 0.03
A11G G19U | 0.02
G5C A16C | 0.07
C3U C10A | 0.05
A26U U34G | 0.15
U32A G35C | 0.08
C18G G19A | 0.31
A14C U20G | 0.1
C3G A39U | 0.27
A14U G30C | 0.14
C23U U43C | 0.43
A25C U43G | 0.12
G5C U34C | 0.06
C13A G30A | 0.08
A25C G40C | 0.06
A4G C13U | 0.23

Variant | self-cleavage
U28C G33C | 0.06
G33U U38A | 0.08
U38G G40U | 0.05
G22C G27C | 0.44
G5U G40A | 0.06
A39C | 0.26
A12U C18A | 0.18
G7A C15A | 0.19
G22A C23G | 0.47
C8U U20G | 0.12
G7C C8G | 0.29
G35U C42A | 0.08
C10U A24U | 0.48
A14U G29U | 0.5
G1U A39C | 0.09
G2A C3G | 0.76
C3G G36U | 0.2
A4G U34A | 0.07
C10G A39U | 0.16
A12C C31G | 0.01
G7A G44U | 0.18
G5A G17U | 0.11
G27C G30U | 1.72

— the RNAGym collection of RNA variant scans (doi:10.7554/elife.90254)
